# Target: N2β1α1C1, purified recombinant (the MxDnaK1 chimera with the MxDnaK2 NBD) (Myxococcus xanthus DK1622)
# Experiment: SDS-PAGE of the purified protein
substance,measurement,value
"N2β1α1C1, purified recombinant (the MxDnaK1 chimera with the MxDnaK2 NBD)",stoichiometry N,2

# From publication doi:10.1101/2023.06.19.545549
